According to US20120034160A1 (AbbVie / Abbott, published 2012):
Substitutions are numbered along the chain they refer to. Values belong to the binder of their own block, whether it stands above or below them.

Key:
Recombinant Human IL-17 = biological target: T1, Recombinant Human IL-17 (human, UniProt Q16552 20-155, limits assumed); assay: cell-based or functional assay
T1 sequence (looked up): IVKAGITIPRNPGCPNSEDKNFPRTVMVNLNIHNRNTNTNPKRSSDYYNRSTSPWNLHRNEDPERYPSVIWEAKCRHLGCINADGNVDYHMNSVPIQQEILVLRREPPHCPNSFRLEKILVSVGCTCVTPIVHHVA

Recombinant Human IL-1β = Recombinant Human IL-1β (human, UniProt P01584 117-269); assay: cell-based or functional assay

B2: DVD1616 (bispecific antibody, human IgG1, kappa)
heavy: not shown
light: EIVLTQSPDFQSVTPKEKVTITCRASQNIGSELHWYQQKPDQSPKLLIKYASHSISGVPSRFSGSGSGTDFTLTINGLEAEDAATYYCHQSDTLPHTFGQGTKVDIKRTVAAPSVFIFPPDTVVTQSPAFLSVTPGEKVTITCITSTDIDVDMNWYQQKPDQPPKLLISQGNTLRPGVPSRFSSSGSGTDFTFTISSLEAEDAATYYCLQSDNLPLTFGQGTKLEIKRTVAAPSVFIFPPSDEQLKSGTASVVCLLNNFYPREAKVQWKVDNALQSGNSQESVTEQDSKDSTYSLSSTLTLSKADYEKHKVYACEVTHQGLSSPVTKSFNRGEC
N-terminal VD IL-17 Neutralization Assay EC50 (Recombinant Human IL-17): 0.0062 nM
C-Terminal VD IL-1β Neutralization Assay EC50 (Recombinant Human IL-1β): 1.12 nM

B3: DVD1614 (bispecific antibody, human IgG1, kappa)
heavy: not shown
light: EIVLTQSPDFQSVTPKEKVTITCRASQNIGSELHWYQQKPDQSPKLLIKYASHSISGVPSRFSGSGSGTDFTLTINGLEAEDAATYYCHQSDTLPHTFGQGTKVDIKRTVAAPSVFIFPPDTQVTQSPSSLSASVGDRVTITCITSTDIDVDMNWYQQKPGKPPKLLISQGNTLRPGVPSRFSSSGSGTDFTFTISSLQPEDFATYYCLQSDNLPLTFGQGTKLEIKRTVAAPSVFIFPPSDEQLKSGTASVVCLLNNFYPREAKVQWKVDNALQSGNSQESVTEQDSKDSTYSLSSTLTLSKADYEKHKVYACEVTHQGLSSPVTKSFNRGEC
N-terminal VD IL-17 Neutralization Assay EC50 (Recombinant Human IL-17): 0.0142 nM
C-Terminal VD IL-1β Neutralization Assay EC50 (Recombinant Human IL-1β): 0.801 nM

B4: DVD1618 (bispecific antibody, human IgG1, kappa)
heavy: not shown
light: B3 light with D121E, Q123T
N-terminal VD IL-17 Neutralization Assay EC50 (Recombinant Human IL-17): 0.0045 nM
C-Terminal VD IL-1β Neutralization Assay EC50 (Recombinant Human IL-1β): 2.75 nM

B5: DVD1611 (bispecific antibody, human IgG1, kappa)
heavy: not shown
light: DIQMTQSPSSLSASVGDRVTITCRASGNIHNYLTWYQQTPGKAPKLLIYNAKTLADGVPSRFSGSGSGTDYTFTISSLQPEDIATYYCQHFWSIPYTFGQGTKLQITRTVAAPSVFIFPPEIVLTQSPDFQSVTPKEKVTITCRASQNIGSELHWYQQKPDQSPKLLIKYASHSISGVPSRFSGSGSGTDFTLTINGLEAEDAATYYCHQSDTLPHTFGQGTKVDIKRTVAAPSVFIFPPSDEQLKSGTASVVCLLNNFYPREAKVQWKVDNALQSGNSQESVTEQDSKDSTYSLSSTLTLSKADYEKHKVYACEVTHQGLSSPVTKSFNRGEC
C-terminal VD IL-17 Neutralization Assay EC50 (Recombinant Human IL-17): 0.3 nM
N-Terminal VD IL-1β Neutralization Assay EC50 (Recombinant Human IL-1β): 0.0041 nM

B6: DVD1615 (bispecific antibody, human IgG1, kappa)
heavy: not shown
light: DTVVTQSPAFLSVTPGEKVTITCITSTDIDVDMNWYQQKPDQPPKLLISQGNTLRPGVPSRFSSSGSGTDFTFTISSLEAEDAATYYCLQSDNLPLTFGQGTKLEIKRTVAAPSVFIFPPEIVLTQSPDFQSVTPKEKVTITCRASQNIGSELHWYQQKPDQSPKLLIKYASHSISGVPSRFSGSGSGTDFTLTINGLEAEDAATYYCHQSDTLPHTFGQGTKVDIKRTVAAPSVFIFPPSDEQLKSGTASVVCLLNNFYPREAKVQWKVDNALQSGNSQESVTEQDSKDSTYSLSSTLTLSKADYEKHKVYACEVTHQGLSSPVTKSFNRGEC
C-terminal VD IL-17 Neutralization Assay EC50 (Recombinant Human IL-17): 0.061 nM
N-Terminal VD IL-1β Neutralization Assay EC50 (Recombinant Human IL-1β): 0.191 nM

B7: DVD1613 (bispecific antibody, human IgG1, kappa)
heavy: not shown
light: DTQVTQSPSSLSASVGDRVTITCITSTDIDVDMNWYQQKPGKPPKLLISQGNTLRPGVPSRFSSSGSGTDFTFTISSLQPEDFATYYCLQSDNLPLTFGQGTKLEIKRTVAAPSVFIFPPEIVLTQSPDFQSVTPKEKVTITCRASQNIGSELHWYQQKPDQSPKLLIKYASHSISGVPSRFSGSGSGTDFTLTINGLEAEDAATYYCHQSDTLPHTFGQGTKVDIKRTVAAPSVFIFPPSDEQLKSGTASVVCLLNNFYPREAKVQWKVDNALQSGNSQESVTEQDSKDSTYSLSSTLTLSKADYEKHKVYACEVTHQGLSSPVTKSFNRGEC
C-terminal VD IL-17 Neutralization Assay EC50 (Recombinant Human IL-17): 0.101 nM
N-Terminal VD IL-1β Neutralization Assay EC50 (Recombinant Human IL-1β): 0.246 nM

B8: DVD1617 (bispecific antibody, human IgG1, kappa)
heavy: not shown
light: B7 light with D1E, Q3T
C-terminal VD IL-17 Neutralization Assay EC50 (Recombinant Human IL-17): 0.0424 nM
N-Terminal VD IL-1β Neutralization Assay EC50 (Recombinant Human IL-1β): 0.247 nM

B11: DVD1612 (bispecific antibody, human IgG1, kappa)
heavy: not shown
light: EIVLTQSPDFQSVTPKEKVTITCRASQNIGSELHWYQQKPDQSPKLLIKYASHSISGVPSRFSGSGSGTDFTLTINGLEAEDAATYYCHQSDTLPHTFGQGTKVDIKRTVAAPSVFIFPPDIQMTQSPSSLSASVGDRVTITCRASGNIHNYLTWYQQTPGKAPKLLIYNAKTLADGVPSRFSGSGSGTDYTFTISSLQPEDIATYYCQHFWSIPYTFGQGTKLQITRTVAAPSVFIFPPSDEQLKSGTASVVCLLNNFYPREAKVQWKVDNALQSGNSQESVTEQDSKDSTYSLSSTLTLSKADYEKHKVYACEVTHQGLSSPVTKSFNRGEC
N-terminal VD IL-17 Neutralization Assay EC50 (Recombinant Human IL-17): 0.0238 nM
C-Terminal VD IL-1β Neutralization Assay EC50 (Recombinant Human IL-1β): 0.153 nM

Now from value to binder:

N-terminal VD IL-17 Neutralization Assay EC50 (Recombinant Human IL-17): 0.0042 nM
C-Terminal VD IL-1β Neutralization Assay EC50 (Recombinant Human IL-1β): > 20 nM
B1: DVD1624 (bispecific antibody, human IgG1, kappa)
heavy: not shown
light: DIQMTQSPSSLSASVGDRVTITCRASSGIISYIDWFQQKPGKAPKRLIYATFDLASGVPSRFSGSGSGTDYTLTISSLQPEDFATYYCRQVGSYPETFGQGTKLEIKRTVAAPDTQVTQSPSSLSASVGDRVTITCITSTDIDVDMNWYQQKPGKPPKLLISQGNTLRPGVPSRFSSSGSGTDFTFTISSLQPEDFATYYCLQSDNLPLTFGQGTKLEIKRTVAAPSVFIFPPSDEQLKSGTASVVCLLNNFYPREAKVQWKVDNALQSGNSQESVTEQDSKDSTYSLSSTLTLSKADYEKHKVYACEVTHQGLSSPVTKSFNRGEC

C-terminal VD IL-17 Neutralization Assay EC50 (Recombinant Human IL-17): 0.0345 nM
N-Terminal VD IL-1β Neutralization Assay EC50 (Recombinant Human IL-1β): 0.139 nM
B9: DVD1619 (bispecific antibody, human IgG1, kappa)
heavy: not shown
light: DIQMTQSPSSLSASVGDRVTITCRASGNIHNYLTWYQQTPGKAPKLLIYNAKTLADGVPSRFSGSGSGTDYTFTISSLQPEDIATYYCQHFWSIPYTFGQGTKLQITRTVAAPDIQMTQSPSSLSASVGDRVTITCRASSGIISYIDWFQQKPGKAPKRLIYATFDLASGVPSRFSGSGSGTDYTLTISSLQPEDFATYYCRQVGSYPETFGQGTKLEIKRTVAAPSVFIFPPSDEQLKSGTASVVCLLNNFYPREAKVQWKVDNALQSGNSQESVTEQDSKDSTYSLSSTLTLSKADYEKHKVYACEVTHQGLSSPVTKSFNRGEC

C-terminal VD IL-17 Neutralization Assay EC50 (Recombinant Human IL-17): 0.0397 nM
N-Terminal VD IL-1β Neutralization Assay EC50 (Recombinant Human IL-1β): 0.0114 nM
B10: DVD1621 (bispecific antibody, human IgG1, kappa)
heavy: not shown
light: B9 light

C-terminal VD IL-17 Neutralization Assay EC50 (Recombinant Human IL-17): 0.0238 nM
N-Terminal VD IL-1β Neutralization Assay EC50 (Recombinant Human IL-1β): 0.16 nM
B12: DVD1623 (bispecific antibody, human IgG1, kappa)
heavy: not shown
light: DTQVTQSPSSLSASVGDRVTITCITSTDIDVDMNWYQQKPGKPPKLLISQGNTLRPGVPSRFSSSGSGTDFTFTISSLQPEDFATYYCLQSDNLPLTFGQGTKLEIKRTVAAPDIQMTQSPSSLSASVGDRVTITCRASSGIISYIDWFQQKPGKAPKRLIYATFDLASGVPSRFSGSGSGTDYTLTISSLQPEDFATYYCRQVGSYPETFGQGTKLEIKRTVAAPSVFIFPPSDEQLKSGTASVVCLLNNFYPREAKVQWKVDNALQSGNSQESVTEQDSKDSTYSLSSTLTLSKADYEKHKVYACEVTHQGLSSPVTKSFNRGEC

N-terminal VD IL-17 Neutralization Assay EC50 (Recombinant Human IL-17): 0.0067 nM
C-Terminal VD IL-1β Neutralization Assay EC50 (Recombinant Human IL-1β): 17.4 nM
B13: DVD1620 (bispecific antibody, human IgG1, kappa)
heavy: not shown
light: DIQMTQSPSSLSASVGDRVTITCRASSGIISYIDWFQQKPGKAPKRLIYATFDLASGVPSRFSGSGSGTDYTLTISSLQPEDFATYYCRQVGSYPETFGQGTKLEIKRTVAAPDIQMTQSPSSLSASVGDRVTITCRASGNIHNYLTWYQQTPGKAPKLLIYNAKTLADGVPSRFSGSGSGTDYTFTISSLQPEDIATYYCQHFWSIPYTFGQGTKLQITRTVAAPSVFIFPPSDEQLKSGTASVVCLLNNFYPREAKVQWKVDNALQSGNSQESVTEQDSKDSTYSLSSTLTLSKADYEKHKVYACEVTHQGLSSPVTKSFNRGEC

N-terminal VD IL-17 Neutralization Assay EC50 (Recombinant Human IL-17): 0.0083 nM
C-Terminal VD IL-1β Neutralization Assay EC50 (Recombinant Human IL-1β): 3.92 nM
B14: DVD1622 (bispecific antibody, human IgG1, kappa)
heavy: not shown
light: B13 light
